Publication PMC9138545 (2022)
Blank lines part the entries; values can stand above or below the binder they belong to. Square brackets hold non-standard residues; d marks the D form. Ends that are not written are not given here. pY = N[C@@H](Cc1ccc(OP(=O)(O)O)cc1)C(=O)O

What was measured:
[1] = target: C-terminal SH2 domain of PI3K regulatory subunit 1 (UniProt P27986 614-724); test: FP
[2] = target: N-terminal SH2 domain of PI3K regulatory subunit 1 (UniProt P27986 321-433); test: FP
N-terminal SH2 domain of PI3K regulatory subunit 1, sequence (P27986 321-433): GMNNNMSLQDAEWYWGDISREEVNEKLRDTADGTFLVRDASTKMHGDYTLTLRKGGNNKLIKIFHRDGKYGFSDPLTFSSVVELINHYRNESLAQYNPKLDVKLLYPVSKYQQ

C-terminal SH2 domain of PI3K regulatory subunit 1, sequence (P27986 614-724): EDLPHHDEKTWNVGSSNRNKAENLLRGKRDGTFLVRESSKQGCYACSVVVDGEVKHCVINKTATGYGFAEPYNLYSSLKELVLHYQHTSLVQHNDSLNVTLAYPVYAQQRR

Kd [1]: 18.6 nM
Kd [2]: 408 nM
B1: fluorescently labelled phospho-para-tyrosine IRS-1 peptide GRKGSGD(pY)MPMSPKS(K-FITC) (peptide)
peptide: GRKGSGDYMPMSPKSK
modifications: not fully specified; phosphotyrosine at position 8 of the peptide (tyrosine residue 632 of human IRS1); lys-carboxyfluorescein (K-FITC) at the C-terminal end

Kd [1]: 2.1 nM
Kd [2]: 137 nM
Binder: GRKGSGD[pY]MPMSPKV-NH2 [phospho-para-Tyr IRS-1 peptide GRKGSGD(pY)MPMSPKV]
